Publication PMC10397247

Tests used:
4H953-bN = biological target: T1, 4H953-bN; test: two-hybrid library CCNG1;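 also: natural log of median RNA to DNA barcode read ratio; higher means stronger binding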
T1 chain: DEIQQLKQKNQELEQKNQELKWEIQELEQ

4H370-bN = biological target: T2, 4H370-bN; test: two-hybrid library CCNG1;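 also: natural log of median RNA to DNA barcode read ratio; higher means stronger binding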
T2 chain: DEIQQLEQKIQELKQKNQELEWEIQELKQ

4H568-bN = biological target: T3, 4H568-bN; test: two-hybrid library CCNG1;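 also: natural log of median RNA to DNA barcode read ratio; higher means stronger binding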
T3 chain: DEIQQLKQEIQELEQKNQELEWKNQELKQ

4H462-bN = biological target: T4, 4H462-bN; test: two-hybrid library CCNG1;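 also: natural log of median RNA to DNA barcode read ratio; higher means stronger binding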
T4 chain: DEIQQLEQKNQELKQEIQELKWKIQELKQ

4H967-bN = biological target: T5, 4H967-bN; test: two-hybrid library CCNG1;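 also: natural log of median RNA to DNA barcode read ratio; higher means stronger binding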
T5 chain: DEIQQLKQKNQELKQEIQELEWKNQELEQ

4H918-bN = biological target: T6, 4H918-bN; test: two-hybrid library CCNG1;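 also: natural log of median RNA to DNA barcode read ratio; higher means stronger binding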
T6 chain: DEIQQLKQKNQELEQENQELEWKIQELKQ

4H72-bN = biological target: T7, 4H72-bN; test: two-hybrid library CCNG1
T7 chain: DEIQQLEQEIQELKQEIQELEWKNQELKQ

4H687-bN = biological target: T8, 4H687-bN; test: two-hybrid library CCNG1
T8 chain: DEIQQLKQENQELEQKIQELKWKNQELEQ

4H3606-bN = biological target: T9, 4H3606-bN; test: two-hybrid library CCNG1; details: mean of both orientations
T9 chain: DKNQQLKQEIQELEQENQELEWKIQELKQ

4H797-bN = biological target: T10, 4H797-bN; test: two-hybrid library CCNG1
T10 chain: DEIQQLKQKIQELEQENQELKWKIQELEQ

4H883-bN = biological target: T11, 4H883-bN; test: two-hybrid library CCNG1
T11 chain: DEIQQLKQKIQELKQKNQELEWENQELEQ

4H3843-bN = biological target: T12, 4H3843-bN; test: two-hybrid library CCNG1
T12 chain: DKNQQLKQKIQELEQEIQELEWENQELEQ

4H4001-bN = biological target: T13, 4H4001-bN; test: two-hybrid library CCNG1
T13 chain: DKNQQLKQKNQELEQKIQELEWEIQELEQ

4H3782-bN = biological target: T14, 4H3782-bN; test: two-hybrid library CCNG1
T14 chain: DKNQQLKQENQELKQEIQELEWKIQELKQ

4H607-bN = biological target: T15, 4H607-bN; test: two-hybrid library CCNG1
T15 chain: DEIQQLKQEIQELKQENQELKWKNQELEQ

APC7099-AA = biological target: T16, APC7099-AA; test: two-hybrid library CCmax; details: mean of both orientations
T16 chain: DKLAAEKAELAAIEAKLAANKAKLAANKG

APC3645-AA = biological target: T17, APC3645-AA; test: two-hybrid library CCmax; details: mean of both orientations
T17 chain: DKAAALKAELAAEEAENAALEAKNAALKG

APC6108-AA = biological target: T18, APC6108-AA; test: two-hybrid library CCmax; details: mean of both orientations
T18 chain: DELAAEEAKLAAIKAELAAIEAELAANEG

APC8191-AA = biological target: T19, APC8191-AA; test: two-hybrid library CCmax; details: mean of both orientations
T19 chain: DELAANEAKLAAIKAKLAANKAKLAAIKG

APC1434-AA = biological target: T20, APC1434-AA; test: two-hybrid library CCmax
T20 chain: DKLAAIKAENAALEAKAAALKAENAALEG

APC9096-AA = biological target: T21, APC9096-AA; test: two-hybrid library CCmax; details: mean of both orientations
T21 chain: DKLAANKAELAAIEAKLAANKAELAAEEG

APC4264-AA = biological target: T22, APC4264-AA; test: two-hybrid library CCmax; details: mean of both orientations
T22 chain: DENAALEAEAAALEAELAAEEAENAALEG

APC5383-AA = biological target: T23, APC5383-AA; test: two-hybrid library CCmax; details: mean of both orientations
T23 chain: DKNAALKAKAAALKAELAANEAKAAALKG

APC4436-AA = biological target: T24, APC4436-AA; test: two-hybrid library CCmax; details: mean of both orientations
T24 chain: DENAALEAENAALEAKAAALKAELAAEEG

APC232-AA = biological target: T25, APC232-AA; test: two-hybrid library CCmax; details: mean of both orientations
T25 chain: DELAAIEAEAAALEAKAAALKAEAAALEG

APC4011-AA = biological target: T26, APC4011-AA; test: two-hybrid library CCmax; details: mean of both orientations
T26 chain: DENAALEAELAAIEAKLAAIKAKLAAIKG

APC8910-AA = biological target: T27, APC8910-AA; test: two-hybrid library CCmax; details: mean of both orientations
T27 chain: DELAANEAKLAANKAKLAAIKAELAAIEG

APC2237-AA = biological target: T28, APC2237-AA; test: two-hybrid library CCmax; details: mean of both orientations
T28 chain: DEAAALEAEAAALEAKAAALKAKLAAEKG

APC9319-AA = biological target: T29, APC9319-AA; test: two-hybrid library CCmax; details: mean of both orientations
T29 chain: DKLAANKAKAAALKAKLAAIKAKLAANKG

APC2405-AA = biological target: T30, APC2405-AA; test: two-hybrid library CCmax; details: mean of both orientations
T30 chain: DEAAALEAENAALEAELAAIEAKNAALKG

4H607-bA = biological target: T31, 4H607-bA; test: two-hybrid library CCNG1
T31 chain: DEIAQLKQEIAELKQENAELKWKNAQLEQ

4H570-bA = biological target: T32, 4H570-bA; test: two-hybrid library CCNG1
T32 chain: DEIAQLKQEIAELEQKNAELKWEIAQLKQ

4H918-bA = biological target: T33, 4H918-bA; test: two-hybrid library CCNG1
T33 chain: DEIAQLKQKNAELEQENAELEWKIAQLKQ

4H687-bA = biological target: T34, 4H687-bA; test: two-hybrid library CCNG1
T34 chain: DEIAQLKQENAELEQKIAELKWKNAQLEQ

4H72-bA = biological target: T35, 4H72-bA; test: two-hybrid library CCNG1
T35 chain: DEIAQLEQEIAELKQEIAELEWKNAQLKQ

4H462-bA = biological target: T36, 4H462-bA; test: two-hybrid library CCNG1
T36 chain: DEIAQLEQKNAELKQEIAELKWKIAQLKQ

4H906-bN = biological target: T37, 4H906-bN; test: two-hybrid library CCNG1
T37 chain: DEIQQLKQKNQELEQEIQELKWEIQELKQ

O6-bA = biological target: T38, O6-bA; test: two-hybrid library CCNG1
T38 chain: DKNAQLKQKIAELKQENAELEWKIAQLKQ

4H953-bA = biological target: T39, 4H953-bA; test: two-hybrid library CCNG1
T39 chain: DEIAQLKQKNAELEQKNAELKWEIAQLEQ

4H568-bA = biological target: T40, 4H568-bA; test: two-hybrid library CCNG1
T40 chain: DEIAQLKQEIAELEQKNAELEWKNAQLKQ

4H797-bA = biological target: T41, 4H797-bA; test: two-hybrid library CCNG1
T41 chain: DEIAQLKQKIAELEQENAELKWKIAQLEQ

4H967-bA = biological target: T42, 4H967-bA; test: two-hybrid library CCNG1
T42 chain: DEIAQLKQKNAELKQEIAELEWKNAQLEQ

4H883-bA = biological target: T43, 4H883-bA; test: two-hybrid library CCNG1
T43 chain: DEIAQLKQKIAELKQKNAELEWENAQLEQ

## DKNQQLKQEIQELEQENQELEWKIQELKQ [4H3606-bN]
4H953-bN
  interaction score: -0.614
4H370-bN
  interaction score: -0.0845
4H568-bN
  interaction score: 1.07
4H462-bN
  interaction score: -0.288
4H967-bN
  interaction score: -1.43
4H918-bN
  interaction score: -0.149
4H72-bN
  interaction score: -0.312
4H687-bN
  interaction score: 0.128
4H3606-bN
  interaction score: -0.385
4H797-bN
  interaction score: -0.386
4H883-bN
  interaction score: -1.5
4H3843-bN
  interaction score: -0.0433
4H4001-bN
  interaction score: -0.219
4H3782-bN
  interaction score: -0.77
4H607-bN
  interaction score: 0.0432

## DKLAAIKAENAALEAKAAALKAENAALEG [APC1434-AA]
APC7099-AA
  interaction score: -1.28
APC3645-AA
  interaction score: -1.31
APC6108-AA
  interaction score: -1.79
APC8191-AA
  interaction score: -1.74
APC1434-AA
  interaction score: -1.78
APC9096-AA
  interaction score: -1.36
APC4264-AA
  interaction score: -1.64
APC5383-AA
  interaction score: -1.97
APC4436-AA
  interaction score: -1.61
APC232-AA
  interaction score: -1.48
APC4011-AA
  interaction score: -1.72
APC8910-AA
  interaction score: -1.81
APC2237-AA
  interaction score: -1.66
APC9319-AA
  interaction score: -1.75
APC2405-AA
  interaction score: -1.36

## DEIAQLEQKNAELKQEIAELKWKIAQLKQ [4H462-bA]
4H607-bA
  interaction score: -0.0392
4H570-bA
  interaction score: -2.87
4H918-bA
  interaction score: -1.06
4H687-bA
  interaction score: 0.993
4H72-bA
  interaction score: 0.312
4H462-bA
  interaction score: 1.24
4H906-bN
  interaction score: 0.676
O6-bA
  interaction score: 1.7
4H953-bA
  interaction score: -0.872
4H568-bA
  interaction score: -0.962
4H797-bA
  interaction score: -0.251
4H967-bA
  interaction score: -0.0789
4H883-bA
  interaction score: -1.19
